The text below walks through data of patent publication US20030027252A1 (TULARIK, published 2003).

What is called Kd is the concentration at which binding is half-saturated. A high value points to lower affinity.

Assay [1] has as its target T1, Human TGR342 (human, UniProt Q969V1 1-340).
T1 construct: Full-length cDNA in pEF6-V5 (Invitrogen), transiently expressed in HEK293 or CHO cells; also called MCHR2; MCHR-2
The assay can be described thus: [125I]-MCH binding to membranes of HEK293 cells transiently transfected with pEF6/V5-TGR342; specific binding = total minus mock-transfected membranes.

Assay [2] deals with T1, Human TGR342. The assay can be described thus: cell-based or functional assay.

Where no end group is shown, it is not given here.

T1 sequence (Q969V1 whole entry): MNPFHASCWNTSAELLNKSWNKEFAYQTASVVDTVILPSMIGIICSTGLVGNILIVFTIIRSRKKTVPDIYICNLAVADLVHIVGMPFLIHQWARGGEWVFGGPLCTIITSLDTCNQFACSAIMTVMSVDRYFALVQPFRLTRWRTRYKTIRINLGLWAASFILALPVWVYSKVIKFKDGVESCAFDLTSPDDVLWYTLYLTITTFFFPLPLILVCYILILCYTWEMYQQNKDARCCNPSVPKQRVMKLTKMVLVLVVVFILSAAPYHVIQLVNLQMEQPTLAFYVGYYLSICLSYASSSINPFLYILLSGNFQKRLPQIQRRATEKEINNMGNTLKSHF

B1: [^125I]-MCH (peptide, UniProt P20382 147-165, looked up)
peptide: DFDMLRCMLGRVYRPCWQV
modifications: ends and bridges not checked; also: 125I label, labelled residue not given here
notes: mature
Molecule B1 showed a Kd with Human TGR342 [1] of 9.6 nM.

B2: melanin-concentrating hormone (MCH) (peptide, UniProt P20382 147-165, looked up)
peptide: DFDMLRCMLGRVYRPCWQV
modifications: ends and bridges not checked; cysteine pairing not given here
Consider B2, for which, in the assay with Human TGR342 [2], the “EC50, aequorin luminescence assay (intracellular calcium mobilization), transfected HEK293 cells” value is 2 nM.
